Source: US20210389324

What was measured:
[1] = tested on: CFP-FOXP3-YFP (18-residue)
[2] = tested on: CFP-FOXP3-YFP (25-residue)
[3] = tested on: CFP-MYH6/7-YFP (16-residue)
[4] = tested on: CFP-MYH6/7-YFP (23-residue)
[5] = tested on: CFP-TRIM14-YFP 19-residue substrate
[6] = tested on: CFP-TRIM14-YFP 22-residue substrate

In the case of “Recombinant MERS-CoV-2 Papain-like Protease”, the “cleavage of CFP-YFP substrate” value [1] is reported as “SARS-CoV-2, MERS PLpro”, the “cleavage of CFP-YFP substrate” value [2] is reported as “SARS-CoV-2, MERS PLpro” and the “cleavage of CFP-YFP substrate” value [3] is reported as “SARS-CoV-2, MERS PLpro”. For the same substance, the “cleavage of CFP-YFP substrate” value [4] was “SARS-CoV-2, MERS PLpro” and the “cleavage of CFP-YFP substrate” value (CFP-PROS1-YFP) was “SARS-CoV-2, MERS PLpro”.

For “Recombinant VEEV nsP2-thioredoxin Protease containing residues 457-792”, the “cleavage of CFP-YFP substrate” value (CFP-SFVp12-YFP 11:6) was “CHIKV and VEEV nsP2 cysteine protease”, the “cleavage of CFP-YFP substrate” value (CFP-SFVp12-YFP 19:6) was “CHIKV and VEEV nsP2 cysteine protease” and the Km [5] was 50 µM. For the same substance, the Vmax [5] was 0.012 U/mg, the “cleavage of CFP-YFP substrate” value [5] was “VEEV nsP2 cysteine protease” and the Km [6] was 26 µM. For the same substance, the Vmax [6] was 0.008 U/mg, the “cleavage of CFP-YFP substrate” value [6] was “VEEV nsP2 cysteine protease” and the Km (CFP-V34-YFP) was 21 µM. The Vmax (CFP-V34-YFP) was 0.089 U/mg, the “cleavage of CFP-YFP substrate” value (CFP-V34-YFP) was “VEEV nsP2 cysteine protease” and the “cleavage of CFP-YFP substrate” value (CFP-VEEVnsP23-YFP) was “VEEV nsP2 cysteine protease”.
